According to US20030073628A1:
Positions of bridges follow the written chain, without caps; N, C: chain ends. No end group written: not given here.

Biological target: guanylate cyclase receptor (on human T84 colon carcinoma cells) (human)
Assay: cell-based or functional assay

Row | Binder | cGMP Level (pmol/well), T84 cells, 1 micromolar peptide for 30 minutes
1 | NDDCELCVNVACTGCL (disulfide 4-12, 7-15) [human uroguanylin, bicyclo [4,12; 7,15] (SP301)] | 205 pmol/well
2 | NEECELCVNVACTGCL (disulfide 4-12, 7-15) [[Glu^2, Glu3]-UG (SP302)] | 225 pmol/well
3 | NEDCELCVNVACTGCL (disulfide 4-12, 7-15) [[Glu^2]-UG (SP303)] | 195 pmol/well
4 | NDECELCVNVACTGCL (disulfide 4-12, 7-15) [[Glu^3]-UG (SP304)] | 315 pmol/well
5 | ECELCVNVACTGCL (disulfide 2-10, 5-13) [SP316] | 275 pmol/well
